# Test results taken from the nanobody polyreactivity screen of Harvey et al. (2022).
# Test: yeast display, Sf9 membrane polyspecificity reagent, FACS + sequencing; frameworks hold sequencing errors
# Method in brief: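 Using colony PCR, genes from sorted yeast display clones were amplified, then sequenced on MiSeq at 2 × 250 and filtered by CDR length. The clones had been stained with 10% biotinylated, detergent-solubilized Sf9 membrane reagent for 1 hour at 4 °C and sorted by FACS into low and high (top ~1%) gates on anti-HA and streptavidin fluorescence. Polyreactivity labels come from the gate of origin.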
row,Sequence,polyreactivity (PSR sort gate)
1,QVQLVESGGGLVQAGGSLRLSCAASGSTFWYYAMGWYRQAPGKERELVATITTSGGNTYYADSVKGRFTISRDNAKNTVYLQMNSLKPEDTAVYYCAARRYRASSRGYGYWGQGTQVTVSS,high polyreactivity
2,QVQLVESGGGLVQAGGSLRLSCAASGSTFWYYAMGWYRQAPGKEWEFVAAIKWSGGRTDYADSVKGRFTISRDIAKNTVYLQMNSLKAEDTAVYYFAADYSFRSFPIDANVLGYEYWGQGTQVTVSS,high polyreactivity
3,QVQLVESGGGLVQAGGSLRLSCAASGSTFWYYTMGSYRQAPGKERELVAAIRYSGTRTYYADSVKGRFTISRDNAKTTVYLQMNSLKPEDTAVYYCARYRTPGYQAYLYDYWGQGTQVTVSS,low polyreactivity
4,QVQLVESGGGLVQAGGSLRLSCAASGSTFYANAMGWYRQAPGKERELVAAITSGGSTNYADSVKGRFTISRDNAKNTVYLQMNSLKPEDTAVYYCATPVNRERHAEDYWGQGTQVTVSS,low polyreactivity
5,QVQLVESGGGLVQAGGSLRLSCAASGSTFYANVMGWYRQAPGKDRELVGAIEGSGGRTDYADSVKGRFTISRDNAKNTVYLQMHSLKPEDTAVYYCAKKRIVPVKQFGRDYNYWGQGTQVTVSS,high polyreactivity
6,QVQLVESGGGLVQAGGSLRLSCAASGSTFYAYALGWYRQAPGKERELVAAISSDGTNYADSVKGRFTISRDNAKNTVYLQMNSLKPVDTAVYYCAADLLLYSSQDNDYWGQGTQVTVSS,low polyreactivity
7,QVQLVESGGGLVQAGGSLRLSCAASGSTFYAYAMGWYRHAPGKERELVAAIDSGGSTYYADSVKGRFTISRDNAKNTVYFQMNSLKPEDTAVYYCAVRHRYTRAYWGRDYWGQGTQVTVSS,low polyreactivity
8,QVQLVESGGGLVQAGGSLRLSCAASGSTFYAYAMGWYRQAPGKERELVAAINGSGGSTNYADSVKGRFTISRDNAKHTDYLQMNSQKPEDTAVYYCAADWSRRLYDYWGQGTQVTVSS,low polyreactivity
9,QVQLVESGGGLVQAGGSLRLSCAASGSTFYAYAMGWYRQAPGKERELVAAIRISGTSTYYADSVKGRFTISRDNAKNTVYLQMNSLKPEDSAVYYCNTLATYVAHNDYWGQGTQVTVSS,high polyreactivity
10,QVQLVESGGGLVQAGGSLRLSCAASGSTFYAYAMGWYRQAPGKERELVASITYSGVSTYYADSVKGRFTISRDNAKNTVYLQMNSLKPEDTAVYYCATDYSHITYSHYRWWYNEYEYWGQGTQVTVSS,low polyreactivity
11,QVQLVESGGGLVQAGGSLRLSCAASGSTFYAYAMGWYRQEPGKERELVAAINSVGSTYYADSVKGRFTISRDNAKNTVYLQMNSLKPEDTAVYYCARGVDYPTSQPPYFRHDYWGQGTQVTVSS,low polyreactivity
12,QVQLVESGGGLVQAGGSLRLSCAASGSTFYAYTMGWYRQAPGKERELVAAISSGGGTYYADSVKGRFTISRDNAKNTVYLQMNSLKPEDTAVYYCAADPVGYYDPSDYWGQGTQVTVSS,low polyreactivity
13,QVQLVESGGGLVQAGGSLRLSCAASGSTFYAYVMGWYRQAPGKERELVAAIRSSGGRTYYADSVKGRFTISRDNAKNTLYLQMNSLKPEDSAVYYCAKAIWATRQYLRFTDYDYWGQGTQVTVSS,high polyreactivity
14,QVQLVESGGGLVQAGGSLRLSCAASGSTFYCYVMGWYRQAPGKERALVAAISSGGGTYYADSVKGRFTISRDNAKNTVYLQMNSLKPEDTAVYYSAADASDGQSWYEDYEYDYWGQGTQVTVSS,low polyreactivity
15,QVQLVESGGGLVQAGGSLRLSCAASGSTFYDNAKGWYRPAPGKERELVAAISYSGASTYYADSVKGRFTISRDNAQNTVYLQMNSLKPEDTAVYYCSKTFYSLYWGQGTQVTVSS,low polyreactivity
16,QVQLVESGGGLVQAGGSLRLSCAASGSTFYDYAMGWYRQAPGKERELVASITTGGDSTYYADSVKGRFTISRDNAKNTVYLQMNSLKPEDTAVYYCNADWYYWISNYQGAPEMDYWGQGTQVTVSS,high polyreactivity
17,QVQLVESGGGLVQAGGSLRLSCAASGSTFYDYVMGWYRQAPGKERELVAVISSSGSTNYADSVKGRITISRDNAKNTVYLQMNSLKTEDTAVYYCAAEYTFDWLEFDYWGQGTQVTVSS,low polyreactivity
18,QVQLVESGGGLVQAGGSLRLSCAASGSTFYEYAMGWYRQAPGKERELVAAISSGGSTYYADSVKGRFTISRDNAKNTVYLQMNSLKPEDTAVYYCNADCQTYGGEYDYWGQGTQVTVSS,low polyreactivity
19,QVQLVESGGGLVQAGGSLRLSCAASGSTFYEYAMGWYRQAPGKERELVAAISWSDVDTYYADSVKGRFTISRDNAKNTVYLQMNSLKPEDTAVYYCAAEWYHPYTQEMDYWGQGTQVTVSS,high polyreactivity
20,QVQLVESGGGLVQAGGSLRLSCAASGSTFYFNAMGWYRPAPGKERELVAAIDWSGGSTYYADSVKGRFTISRDNAKNTVYLQMNSLKPEDTAVYYCAADISVGRYGDMDYYYKVDYWGQGTQVTVSS,low polyreactivity

row,Sequence,polyreactivity (PSR sort gate)
1,QVQLVESGGGLVQAGGSLRLSCAASGSTFYFNAMGWYRQAPGKEREFVAGIRYSGSSTYYADSVKGRFTISRDNAKNTVYLQMNSLKPEDTAVYYCAAERWCYTVRGYGYWGHGTQVTVSS,high polyreactivity
2,QVQLVESGGGLVQAGGSLRLSCAASGSTFYFNAMGWYRQAPGKERELVAAIDWSGGSTYYADSVKGRFTISRDNAKNTVYLQMNSLKPEDTAVYYCNADNYEWGNNYGYWGQGTQVTVSS,low polyreactivity
3,QVQLVESGGGLVQAGGSLRLSCAASGSTFYFNAMGWYRQAPGKERELVAGIRYSGSSTYYADSVKGRFTISRDNAKNTVYLQMNSLKPEDTAVYYCAARYSVYPRVSKYSYRFNYWGQGTQVTVSS,high polyreactivity
4,QVQLVESGGGLVQAGGSLRLSCAASGSTFYFNAMGWYRQAPGKERELVAGITYSGDSTYYADSVKGRFTISRDNAKNTVYLQMNSLKPEDTAVYYCAADVDYDLDGDYWGQGTQVTVSS,low polyreactivity
5,QVQLVESGGGLVQAGGSLRLSCAASGSTFYFNTMGWYRQAPGKERELVAAIRRSSGSTYYADSVKGRFTISRDNAKNTVYLQMNSLKPEDTAVYYCAADNAVTRYGRIDRDYWGQGTQVTVSS,low polyreactivity
6,QVQLVESGGGLVQAGGSLRLSCAASGSTFYFYAMGWYRQAPGKEREFVARISNRDGSTYYADSVKGRFTISRDNAKNTVYLQMNSLKPEDTAVYYCAVKQRASHYPYYSWGQGTQVTVSS,high polyreactivity
7,QVQLVESGGGLVQAGGSLRLSCAASGSTFYFYTMGWYRQAPGKERELVAAISQDGGSTYYADSVKGRFTISRDNAKNTVYLQMNSLKPEDTAVYYCAADKRGTVYLSSFWMDYWGQGTQVTVSS,low polyreactivity
8,QVQLVESGGGLVQAGGSLRLSCAASGSTFYFYVMGWYRQAPGKERELVAAITWSGGRTSYADSVKGRFTISRDNAKNTVYLQMNSLKPEDTAVYYCAKDLQNSSHPSRYDYWGQGTQVTVSS,low polyreactivity
9,QVQLVESGGGLVQAGGSLRLSCAASGSTFYGYAMGWYRQAPGKERELVAAITLIGTSTYYADSVKCRFTISRDNAKNTVYLQMNSLKPEDTAVYYCAAEISYGYGYWGQGTQVTVSS,low polyreactivity
10,QVQLVESGGGLVQAGGSLRLSCAASGSTFYGYAMGWYRQAPGKERELVAGITSAGSTYYADSVKGRFTISRDNAKNTVYLQMNSLKPEDTAVYYCAYHGAGYYYWGQGTQVTVSS,high polyreactivity
11,QVQLVESGGGLVQAGGSLRLSCAASGSTFYGYGMGWYRQAPGKERELVAAITGSGDTTYYADSVKGRFTISRDNAKNSVYLQMNSLKPEDTAVYYCNARWHAEYDYWGQGTQVTVSS,low polyreactivity
12,QVQLVESGGGLVQAGGSLRLSCAASGSTFYGYGMGWYRQAPGKERELVAAITGSGDTTYYADSVKGRFTISRDNAKNTVYLQMNSLKPEDTAVYYCNARWLAEYDYWGQGTQVTVSS,low polyreactivity
13,QVQLVESGGGLVQAGGSLRLSCAASGSTFYGYTMGWYRQAPGKERELVAAISSSGSSTYYADSVKGRFTISRDNAKNTVYLQMNSLKPEDTAVYYCAAATRVPGHGSTSYYYWGQGTQVTVSS,high polyreactivity
14,QVQLVESGGGLVQAGGSLRLSCAASGSTFYHNVKGWYRQAPWKERELVASIDTGDSTNYADTVKGRFSISRDNAKKTVYLQMNSLKPEDTAVYYCNADSYPALNKRGYEYWGQGTQVTVSS,low polyreactivity
15,QVQLVESGGGLVQAGGSLRLSCAASGSTFYHYAMGWYRQAPGKERELVAAISWSGGSTYYADSVKGSFTISRDNAKNTVYLLMYSLKPEDTAVYYCNALLSGLTSTEYDYWGQGTQVTVSS,high polyreactivity
16,QVQLVESGGGLVQAGGSLRLSCAASGSTFYHYTMGWYRQAPGKERELVARISRSGGSTYYADSVKGRFTISRDNAKNTVYLQMNSLKPEDTAGYYCNKGSFYGSSQVGGTGYDYWGQGTQVTVSS,low polyreactivity
17,QVQLVESGGGLVQAGGSLRLSCAASGSTFYHYVMGWYRQAPGKERELGAAISWRGGRTYYADSVKGRFTISRDTAKNTVYLQMNSLKPEDTAVYYCARAYFQPSYYGVEYNYWGQGTQVTVSS,high polyreactivity
18,QVQLVESGGGLVQAGGSLRLSCAASGSTFYINAMGWYRQAPGKEREFVAAITSRGGSTYYADSVKGRFTISRDNAKNTVYLQMNSLKPEDTAVYYCAARNFLSRRGTYDYWGQGTQVTVSS,high polyreactivity
19,QVQLVESGGGLVQAGGSLRLSCAASGSTFYINAMGWYRQAPGKERELVAAISWSTTITYYADSVKGRFTISRDNAKNTVYLQMNSLKPEDTAVYYCAAEEEYWDYSGGGYWGQGTQVTVSS,high polyreactivity
20,QVQLVESGGGLVQAGGSLRLSCAASGSTFYIYAMGWYRQAPGKERELVAAITSGGNTYYADSVKGRFTISRDNAKNTVYLQMNSLKPEDTAVYYCAAELYDRWSRMDYWGQGTQVTVSS,low polyreactivity
